The Kd is the constant that tells how readily two partners part at equilibrium. A high value points to a looser complex. By koff is commonly meant the rate constant with which the complex falls apart. What is called kon is the second-order rate constant of association. Higher therefore signals faster complex formation.

Where a chain is given by its changes, count along the chain named.

The labels stand for the following.
B1: NVS100 (Fab)
heavy: GACGVYHREAQSGKYYLTYAEAKAVCEFEGGHLATYKQLLCAQKIGFHVCAAGWMAKGRVGYPIVKPGPNCGFGKTGIIDYGIRLNRSERWDAYCYNPHAGGGSQVQLVESGGGLVQPGGSLRLSCTASGFSLTDYYYMTWVRQAPGKGLEWVGFIDPDDDPYYATWAKGRFTISRDNSKNTLYLQMNSLRAEDTAVYYCAGGDHNSGWGLDIWGQGTLVTVSSASTKGPSVFPLAPSSKSTSGGTAALGCLVKDYFPEPVTVSWNSGALTSGVHTFPAVLQSSGLYSLSSVVTVPSSSLGTQTYICNVNHKPSNTKVDKRVEPKSC
light: EIVMTQSPSTLSASVGDRVIITCQASEIIHSWLAWYQQKPGKAPKLLIYLASTLASGVPSRFSGSGSGAEFTLTISSLQPDDFATYYCQNVYLASTNGANFGQGTKLTVLKRTVAAPSVFIFPPSDEQLKSGTASVVCLLNNFYPREAKVQWKVDNALQSGNSQESVTEQDSKDSTYSLSSTLTLSKADYEKHKVYACEVTHQGLSSPVTKSFNRGEC
notes: Tag NVS-AX at the N-terminus of the NVS4 heavy chain
B2: NVS4/NVSX (Fab)
heavy: EVQLVESGGGLVQPGGSLRLSCTASGFSLTDYYYMTWVRQAPGKGLEWVGFIDPDDDPYYATWAKGRFTISRDNSKNTLYLQMNSLRAEDTAVYYCAGGDHNSGWGLDIWGQGTLVTVSSASTKGPSVFPLAPSSKSTSGGTAALGCLVKDYFPEPVTVSWNSGALTSGVHTFPAVLQSSGLYSLSSVVTVPSSSLGTQTYICNVNHKPSNTKVDKRVEPKSCGSGGGGVYHREAISGKYYLTYAEAKAVCEFEGGHLATYKQLLAAQKIGFHVCAAGWMAKGRVGYPIVKPGPNCGFGKTGIIDYGIRLNRSERWDAYCYNPHA
light: B1 light
notes: NVS4 Fab linked to peptide tag NVS-X
B3: NVS101 (Fab)
heavy: EVQLVESGGGLVQPGGSLRLSCTASGFSLTDYYYMTWVRQAPGKGLEWVGFIDPDDDPYYATWAKGRFTISRDNSKNTLYLQMNSLRAEDTAVYYCAGGDHNSGWGLDIWGQGTLVTVSSASTKGPSVFPLAPSSKSTSGGTAALGCLVKDYFPEPVTVSWNSGALTSGVHTFPAVLQSSGLYSLSSVVTVPSSSLGTQTYICNVNHKPSNTKVDKRVEPKSC
light: ACGVYHREAQSGKYYLTYAEAKAVCEFEGGHLATYKQLLCAQKIGFHVCAAGWMAKGRVGYPIVKPGPNCGFGKTGIIDYGIRLNRSERWDAYCYNPHAGGGSDIVMTQSPSTLSASVGDRVIITCQASEIIHSWLAWYQQKPGKAPKLLIYLASTLASGVPSRFSGSGSGAEFTLTISSLQPDDFATYYCQNVYLASTNGANFGQGTKLTVLKRTVAAPSVFIFPPSDEQLKSGTASVVCLLNNFYPREAKVQWKVDNALQSGNSQESVTEQDSKDSTYSLSSTLTLSKADYEKHKVYACEVTHQGLSSPVTKSFNRGEC
B4: NVS103 (Fab)
heavy: B3 heavy
light: DIVMTQSPSTLSASVGDRVIITCQASEIIHSWLAWYQQKPGKAPKLLIYLASTLASGVPSRFSGSGSGAEFTLTISSLQPDDFATYYCQNVYLASTNGANFGQGTKLTVLKRTVAAPSVFIFPPSDEQLKSGTASVVCLLNNFYPREAKVQWKVDNALQSGNSQESVTEQDSKDSTYSLSSTLTLSKADYEKHKVYACEVTHQGLSSPVTKSFNRGECGSGGGACGVYHREAQSGKYYLTYAEAKAVCEFEGGHLATYKQLLCAQKIGFHVCAAGWMAKGRVGYPIVKPGPNCGFGKTGIIDYGIRLNRSERWDAYCYNPHA
notes: Tag NVS-AX at the C-terminus of the NVS4 light chain
B5: NVS102 (Fab)
heavy: QVQLVESGGGLVQPGGSLRLSCTASGFSLTDYYYMTWVRQAPGKGLEWVGFIDPDDDPYYATWAKGRFTISRDNSKNTLYLQMNSLRAEDTAVYYCAGGDHNSGWGLDIWGQGTLVTVSSASTKGPSVFPLAPSSKSTSGGTAALGCLVKDYFPEPVTVSWNSGALTSGVHTFPAVLQSSGLYSLSSVVTVPSSSLGTQTYICNVNHKPSNTKVDKRVEPKSCGSGGGACGVYHREAQSGKYYLTYAEAKAVCEFEGGHLATYKQLLCAQKIGFHVCAAGWMAKGRVGYPIVKPGPNCGFGKTGIIDYGIRLNRSERWDAYCYNPHA
light: B1 light
notes: Tag NVS-AX at the C-terminus of the NVS4 heavy chain
B6: NVS4/NVSY (Fab)
heavy: B2 heavy with L265Q
light: B1 light
notes: NVS4 Fab linked to peptide tag NVS-Y
B7: NVS105 (Fab)
heavy: B5 heavy
light: B4 light
notes: Tag NVS-AX at the C-terminus of NVS4 heavy and light chains
B8: NVS107 (Fab)
heavy: B5 heavy with Q1E, D31N, D55Q, D56N, D100N, D108N
light: B4 light with D1E, E27Q, I28K, L50Q, T53K, S56K
notes: Tag NVS-AX at the C-terminus of the LC2 light chain and the HC4 heavy chain
B9: NVS104 (Fab)
heavy: B1 heavy
light: B3 light
notes: Tag NVS-AX at the N-terminus of NVS4 heavy and light chains
B10: NVS106 (Fab)
heavy: B1 heavy with Q105E, D135N, D159Q, D160N, D204N, D212N
light: B3 light with D104E, E130Q, I131K, L153Q, T156K, S159K
notes: Tag NVS-AX at the N-terminus of the LC2 light chain and the HC4 heavy chain
B11: NVS4 (Fab)
heavy: B3 heavy
light: B1 light
notes: Fab version of the 1008 scFv; also called untagged anti-VEGF Fab
B12: NVS3 (Fab)
heavy: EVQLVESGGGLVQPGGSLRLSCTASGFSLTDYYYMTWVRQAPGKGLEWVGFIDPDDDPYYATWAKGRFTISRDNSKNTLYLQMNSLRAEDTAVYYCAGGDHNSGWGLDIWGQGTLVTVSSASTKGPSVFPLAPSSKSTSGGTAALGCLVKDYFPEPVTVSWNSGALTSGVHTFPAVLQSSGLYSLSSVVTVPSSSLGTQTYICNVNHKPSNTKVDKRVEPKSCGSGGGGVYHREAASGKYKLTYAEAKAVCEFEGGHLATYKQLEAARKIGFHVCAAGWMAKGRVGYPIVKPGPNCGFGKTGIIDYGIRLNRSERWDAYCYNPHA
light: B1 light
notes: NVS4 Fab with HA10.2 tag at heavy chain C-terminus
B13: NVS1 (Fab)
heavy: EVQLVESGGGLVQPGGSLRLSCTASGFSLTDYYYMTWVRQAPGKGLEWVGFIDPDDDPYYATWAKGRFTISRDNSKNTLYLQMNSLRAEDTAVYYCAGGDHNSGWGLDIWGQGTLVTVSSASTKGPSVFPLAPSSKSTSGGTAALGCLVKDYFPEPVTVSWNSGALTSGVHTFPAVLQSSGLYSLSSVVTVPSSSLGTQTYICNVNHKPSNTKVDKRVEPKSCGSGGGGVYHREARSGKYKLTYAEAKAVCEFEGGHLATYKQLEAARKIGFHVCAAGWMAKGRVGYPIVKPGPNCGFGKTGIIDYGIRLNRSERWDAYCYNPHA
light: B1 light
notes: NVS4 Fab with HA10 tag via GSGGG at heavy chain C-terminus
B14: NVS2 (Fab)
heavy: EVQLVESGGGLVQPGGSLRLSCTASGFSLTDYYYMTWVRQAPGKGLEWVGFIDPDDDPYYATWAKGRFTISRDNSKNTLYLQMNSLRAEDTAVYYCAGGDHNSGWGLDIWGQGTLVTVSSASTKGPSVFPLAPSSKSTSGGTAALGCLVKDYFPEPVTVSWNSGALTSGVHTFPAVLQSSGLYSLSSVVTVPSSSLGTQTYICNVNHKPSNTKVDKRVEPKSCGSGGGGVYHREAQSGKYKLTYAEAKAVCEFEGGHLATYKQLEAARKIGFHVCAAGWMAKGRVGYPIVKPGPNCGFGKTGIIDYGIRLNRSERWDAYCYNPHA
light: B1 light
notes: NVS4 Fab with HA10.1 tag at heavy chain C-terminus

The target in one test is T1, human VEGF (human, UniProt P15692 207-395, biotinylated (site not stated)).
T1 construct: Biotinylated human VEGF generated internally; also called hVEGF; hVEGF-biotin
T1 sequence: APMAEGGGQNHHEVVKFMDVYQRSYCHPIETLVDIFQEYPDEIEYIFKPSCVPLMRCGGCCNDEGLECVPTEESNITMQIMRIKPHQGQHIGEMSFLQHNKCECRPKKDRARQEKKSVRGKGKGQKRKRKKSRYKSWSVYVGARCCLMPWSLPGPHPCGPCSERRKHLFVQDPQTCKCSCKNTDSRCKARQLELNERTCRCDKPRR
Put plainly: Biacore SPR, hVEGF.
Molecule B1 yielded a Kd of 1.34 pM, a dissociation rate constant (koff) of 4.97e-05 s⁻¹ and an on-rate (kon) of 3.71e+07 M⁻¹ s⁻¹.

Take B2: the Kd is 0.465 pM, the off-rate (koff) turned out to be 2.11e-05 s⁻¹ and the kon came out at 4.53e+07 M⁻¹ s⁻¹.

As to B3, binding was put at a Kd of 7.1 pM, the dissociation rate constant (koff) worked out at 0.000219 s⁻¹ and the kon came to 3.09e+07 M⁻¹ s⁻¹.

Consider B4, for which binding was characterised by a dissociation constant (Kd) of 2.34 pM, the off-rate constant (koff) was found to be 0.000128 s⁻¹ and the kon was 5.49e+07 M⁻¹ s⁻¹.

The molecule B5 gave a Kd of 1.43 pM, a koff of 0.000134 s⁻¹ and an on-rate (kon) of 9.35e+07 M⁻¹ s⁻¹.

Turning to B6, the Kd stood at 0.447 pM, the koff worked out at 2.26e-05 s⁻¹ and the on-rate constant (kon) came out at 5.06e+07 M⁻¹ s⁻¹.

The molecule B7 yielded a Kd of 0.13 pM, a koff of 3.97e-05 s⁻¹ and a kon of 3.06e+08 M⁻¹ s⁻¹.

Regarding B8, the Kd stood at 0.741 pM, the koff worked out at 0.000104 s⁻¹ and the on-rate constant (kon) came out at 1.41e+08 M⁻¹ s⁻¹.

B9 showed an equilibrium dissociation constant (Kd) of 0.854 pM, an off-rate constant (koff) of 1.57e-05 s⁻¹ and a kon of 1.84e+07 M⁻¹ s⁻¹.

In the case of B10, binding was characterised by a dissociation constant (Kd) of 10.4 pM, the koff is 0.000563 s⁻¹ and the on-rate constant (kon) came to 5.4e+07 M⁻¹ s⁻¹.

The next test deals with T1, human VEGF. Put plainly: Biacore SPR, human VEGF.
Protocol: In order to determine target kinetics, two different formats were utilized. […] The second format is an anti-fab capture method in which the fab protein samples are captured and the target proteins flowed over at various concentrations.
The sample compartment which includes the analytes, ligands, and regeneration buffer, is kept at 15° C. All other running conditions were carried out at either 25° C. or 37° C. in 1×HBSE+P buffer. […] Data was collected at 10 Hz and analyzed using the Biacore T200 Evaluation Software (GE Healthcare®). This program uses a global fitting analysis method for the determination of rate and affinity constants for each interaction.
For B11, the equilibrium dissociation constant (Kd) was found to be 5.1 pM, the koff was 1.38e-05 s⁻¹ and the on-rate constant (kon) amounted to 2.71e+06 M⁻¹ s⁻¹.

For the molecule B12, binding was put at a Kd of 0.161 pM, the dissociation rate constant (koff) came to 1.19e-05 s⁻¹ and the association rate constant (kon) came out at 7.39e+07 M⁻¹ s⁻¹.

In turn, B13 yielded a dissociation constant Kd of 0.176 pM, a koff of 1.01e-05 s⁻¹ and an association rate constant (kon) of 5.75e+07 M⁻¹ s⁻¹.

Take B14: the Kd is 0.195 pM, the off-rate (koff) was 1.05e-05 s⁻¹ and the kon is 5.36e+07 M⁻¹ s⁻¹.

Values taken from US20170290876A1 (Novartis, published 2017).
